Literature values as cited in doi:10.1101/2023.06.05.542125.
Read-outs that look alike come from different tables or passages of the source.

What was measured:
[1] = target: RNA polymerase elongation complex (Escherichia coli) (UniProt P0A7Z4)
[2] = target: RNA polymerase elongation complex (Escherichia coli) (UniProt P0A7Z4); remark: listed apart in the source

Chain of GreA (P0A6W5 whole entry): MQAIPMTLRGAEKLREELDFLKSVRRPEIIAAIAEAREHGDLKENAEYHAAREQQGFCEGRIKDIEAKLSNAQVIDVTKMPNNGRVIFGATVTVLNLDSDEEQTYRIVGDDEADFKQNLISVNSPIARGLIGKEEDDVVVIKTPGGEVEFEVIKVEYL
Chain of GreB (P30128 whole entry): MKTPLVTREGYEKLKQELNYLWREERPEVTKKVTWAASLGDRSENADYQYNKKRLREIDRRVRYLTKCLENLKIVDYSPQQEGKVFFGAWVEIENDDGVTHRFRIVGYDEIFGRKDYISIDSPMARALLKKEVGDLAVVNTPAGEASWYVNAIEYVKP

Row | Kd [1] [nM] | Kd [2] [nM] | Substance
1 | 100 |  | GreB (from UniProt P30128)
2 |  | 1000 | GreA (from UniProt P0A6W5)
